Measurements: IntAct's records for PubMed 35512704

B1: Speckle-type POZ protein (Homo sapiens), O43791 (parent)
chain: MSRVPSPPPPAEMSSGPVAESWCYTQIKVVKFSYMWTINNFSFCREEMGEVIKSSTFSSGANDKLKWCLRVNPKGLDEESKDYLSLYLLLVSCPKSEVRAKFKFSILNAKGEETKAMESQRAYRFVQGKDWGFKKFIRRDFLLDEANGLLPDDKLTLFCEVSVVQDSVNISGQNTMNMVKVPECRLADELGGLWENSRFTDCCLCVAGQEFQAHKAILAARSPVFSAMFEHEMEESKKNRVEINDVEPEVFKEMMCFIYTGKAPNLDKMADDLLAAADKYALERLKVMCEDALCSNLSVENAAEILILADLHSADQLKTQAVDFINYHASDVLETSGWKSMVVSHPHLVAEAYRSLASAQCPFLGPPRKRLKQS

Variants of: B1
Details: with mk06_human MAPK6, Q16659

Row | effect of a mutation on the interaction | Variant
1 | with no effect | MSRVPSPPPPAEMSSGPVAESWCYTQIKVVKFSYMWTINNFSFCREEMGEVIKSSTFSSGANDKLKWCLRVNPKGLDEESKDYLSLCLLLVSCPKSEVRAKFKFSILNAKGEETKAMESQRAYRFVQGKDWGFKKFIRRDFLLDEANGLLPDDKLTLFCEVSVVQDSVNISGQNTMNMVKVPECRLADELGGLWENSRFTDCCLCVAGQEFQAHKAILAARSPVFSAMFEHEMEESKKNRVEINDVEPEVFKEMMCFIYTGKAPNLDKMADDLLAAADKYALERLKVMCEDALCSNLSVENAAEILILADLHSADQLKTQAVDFINYHASDVLETSGWKSMVVSHPHLVAEAYRSLASAQCPFLGPPRKRLKQS [Y87C]

Variants of: B1
Details: with sin1_human MAPKAP1, Q9BPZ7
Sequence of sin1_human MAPKAP1, Q9BPZ7 (Q9BPZ7 whole entry): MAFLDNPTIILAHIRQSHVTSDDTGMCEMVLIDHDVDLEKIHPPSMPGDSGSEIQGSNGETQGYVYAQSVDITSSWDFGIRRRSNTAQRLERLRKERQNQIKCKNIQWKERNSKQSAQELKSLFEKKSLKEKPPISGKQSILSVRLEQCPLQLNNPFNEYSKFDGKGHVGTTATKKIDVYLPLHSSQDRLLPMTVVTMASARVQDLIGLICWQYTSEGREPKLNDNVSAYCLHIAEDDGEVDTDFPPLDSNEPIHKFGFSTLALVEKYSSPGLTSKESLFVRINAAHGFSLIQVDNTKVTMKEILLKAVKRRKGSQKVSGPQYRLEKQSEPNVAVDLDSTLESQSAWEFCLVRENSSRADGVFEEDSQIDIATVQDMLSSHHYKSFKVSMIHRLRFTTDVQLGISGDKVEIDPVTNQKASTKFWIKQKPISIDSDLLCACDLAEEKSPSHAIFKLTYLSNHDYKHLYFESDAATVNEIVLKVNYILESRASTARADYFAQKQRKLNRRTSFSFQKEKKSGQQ

Row | effect of a mutation on the interaction | Variant
2 | with no effect | MSRVPSPPPPAEMSSGPVAESWCYTQIKVVKFSYMWTINNFSFCREEMGEVIKSSTFSSGANDKLKWCLRVNPKGLDEESKDYLSLCLLLVSCPKSEVRAKFKFSILNAKGEETKAMESQRAYRFVQGKDWGFKKFIRRDFLLDEANGLLPDDKLTLFCEVSVVQDSVNISGQNTMNMVKVPECRLADELGGLWENSRFTDCCLCVAGQEFQAHKAILAARSPVFSAMFEHEMEESKKNRVEINDVEPEVFKEMMCFIYTGKAPNLDKMADDLLAAADKYALERLKVMCEDALCSNLSVENAAEILILADLHSADQLKTQAVDFINYHASDVLETSGWKSMVVSHPHLVAEAYRSLASAQCPFLGPPRKRLKQS [Y87C]

Variants of: B1
Details: with mcl1_human MCL1, Q07820
Sequence of mcl1_human MCL1, Q07820 (Q07820 whole entry): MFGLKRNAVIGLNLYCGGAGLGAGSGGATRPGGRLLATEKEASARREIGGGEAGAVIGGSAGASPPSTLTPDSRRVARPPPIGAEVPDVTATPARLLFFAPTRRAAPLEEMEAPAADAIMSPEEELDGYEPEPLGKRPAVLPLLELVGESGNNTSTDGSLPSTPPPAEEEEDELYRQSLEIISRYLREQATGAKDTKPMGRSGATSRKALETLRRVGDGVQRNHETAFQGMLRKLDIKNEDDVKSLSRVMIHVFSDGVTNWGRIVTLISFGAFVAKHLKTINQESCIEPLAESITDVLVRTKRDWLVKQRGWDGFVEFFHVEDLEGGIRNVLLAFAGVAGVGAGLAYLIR

Row | effect of a mutation on the interaction | Variant
3 | with no effect | MSRVPSPPPPAEMSSGPVAESWCYTQIKVVKFSYMWTINNFSFCREEMGEVIKSSTFSSGANDKLKWCLRVNPKGLDEESKDYLSLCLLLVSCPKSEVRAKFKFSILNAKGEETKAMESQRAYRFVQGKDWGFKKFIRRDFLLDEANGLLPDDKLTLFCEVSVVQDSVNISGQNTMNMVKVPECRLADELGGLWENSRFTDCCLCVAGQEFQAHKAILAARSPVFSAMFEHEMEESKKNRVEINDVEPEVFKEMMCFIYTGKAPNLDKMADDLLAAADKYALERLKVMCEDALCSNLSVENAAEILILADLHSADQLKTQAVDFINYHASDVLETSGWKSMVVSHPHLVAEAYRSLASAQCPFLGPPRKRLKQS [Y87C]

Variants of: B1
Details: with mdm2_human MDM2, Q00987

Row | effect of a mutation on the interaction | Variant
4 | with no effect | MSRVPSPPPPAEMSSGPVAESWCYTQIKVVKFSYMWTINNFSFCREEMGEVIKSSTFSSGANDKLKWCLRVNPKGLDEESKDYLSLCLLLVSCPKSEVRAKFKFSILNAKGEETKAMESQRAYRFVQGKDWGFKKFIRRDFLLDEANGLLPDDKLTLFCEVSVVQDSVNISGQNTMNMVKVPECRLADELGGLWENSRFTDCCLCVAGQEFQAHKAILAARSPVFSAMFEHEMEESKKNRVEINDVEPEVFKEMMCFIYTGKAPNLDKMADDLLAAADKYALERLKVMCEDALCSNLSVENAAEILILADLHSADQLKTQAVDFINYHASDVLETSGWKSMVVSHPHLVAEAYRSLASAQCPFLGPPRKRLKQS [Y87C]

Variants of: B1
Details: with mitf_human MITF

Row | effect of a mutation on the interaction | Variant
5 | with no effect | MSRVPSPPPPAEMSSGPVAESWCYTQIKVVKFSYMWTINNFSFCREEMGEVIKSSTFSSGANDKLKWCLRVNPKGLDEESKDYLSLCLLLVSCPKSEVRAKFKFSILNAKGEETKAMESQRAYRFVQGKDWGFKKFIRRDFLLDEANGLLPDDKLTLFCEVSVVQDSVNISGQNTMNMVKVPECRLADELGGLWENSRFTDCCLCVAGQEFQAHKAILAARSPVFSAMFEHEMEESKKNRVEINDVEPEVFKEMMCFIYTGKAPNLDKMADDLLAAADKYALERLKVMCEDALCSNLSVENAAEILILADLHSADQLKTQAVDFINYHASDVLETSGWKSMVVSHPHLVAEAYRSLASAQCPFLGPPRKRLKQS [Y87C]

Variants of: B1
Details: with mlh1_human MLH1, P40692
Sequence of mlh1_human MLH1, P40692 (P40692 whole entry): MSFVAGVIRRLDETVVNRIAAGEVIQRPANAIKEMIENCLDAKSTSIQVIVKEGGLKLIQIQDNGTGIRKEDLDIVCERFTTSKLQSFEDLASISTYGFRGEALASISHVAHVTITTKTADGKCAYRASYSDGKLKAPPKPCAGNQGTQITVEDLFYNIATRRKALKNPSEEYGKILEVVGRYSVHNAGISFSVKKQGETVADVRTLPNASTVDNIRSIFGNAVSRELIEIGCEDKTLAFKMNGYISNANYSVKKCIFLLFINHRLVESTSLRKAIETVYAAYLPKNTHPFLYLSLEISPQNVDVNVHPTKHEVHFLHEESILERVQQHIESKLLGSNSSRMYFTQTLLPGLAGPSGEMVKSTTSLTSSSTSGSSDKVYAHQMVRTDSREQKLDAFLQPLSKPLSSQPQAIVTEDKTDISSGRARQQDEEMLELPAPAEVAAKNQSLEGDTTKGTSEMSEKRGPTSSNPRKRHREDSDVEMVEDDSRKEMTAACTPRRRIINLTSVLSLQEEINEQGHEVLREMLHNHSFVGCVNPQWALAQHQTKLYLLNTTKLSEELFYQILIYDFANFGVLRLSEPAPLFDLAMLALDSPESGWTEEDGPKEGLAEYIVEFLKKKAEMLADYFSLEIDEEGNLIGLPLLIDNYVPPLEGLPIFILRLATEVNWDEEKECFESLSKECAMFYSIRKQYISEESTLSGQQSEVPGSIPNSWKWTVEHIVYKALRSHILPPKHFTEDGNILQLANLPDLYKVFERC

Row | effect of a mutation on the interaction | Variant
6 | with no effect | MSRVPSPPPPAEMSSGPVAESWCYTQIKVVKFSYMWTINNFSFCREEMGEVIKSSTFSSGANDKLKWCLRVNPKGLDEESKDYLSLCLLLVSCPKSEVRAKFKFSILNAKGEETKAMESQRAYRFVQGKDWGFKKFIRRDFLLDEANGLLPDDKLTLFCEVSVVQDSVNISGQNTMNMVKVPECRLADELGGLWENSRFTDCCLCVAGQEFQAHKAILAARSPVFSAMFEHEMEESKKNRVEINDVEPEVFKEMMCFIYTGKAPNLDKMADDLLAAADKYALERLKVMCEDALCSNLSVENAAEILILADLHSADQLKTQAVDFINYHASDVLETSGWKSMVVSHPHLVAEAYRSLASAQCPFLGPPRKRLKQS [Y87C]

Variants of: B1
Details: with mtor_human MTOR

Row | effect of a mutation on the interaction | Variant
7 | with no effect | MSRVPSPPPPAEMSSGPVAESWCYTQIKVVKFSYMWTINNFSFCREEMGEVIKSSTFSSGANDKLKWCLRVNPKGLDEESKDYLSLCLLLVSCPKSEVRAKFKFSILNAKGEETKAMESQRAYRFVQGKDWGFKKFIRRDFLLDEANGLLPDDKLTLFCEVSVVQDSVNISGQNTMNMVKVPECRLADELGGLWENSRFTDCCLCVAGQEFQAHKAILAARSPVFSAMFEHEMEESKKNRVEINDVEPEVFKEMMCFIYTGKAPNLDKMADDLLAAADKYALERLKVMCEDALCSNLSVENAAEILILADLHSADQLKTQAVDFINYHASDVLETSGWKSMVVSHPHLVAEAYRSLASAQCPFLGPPRKRLKQS [Y87C]

Variants of: B1
Details: with mybb_human MYBL2, P10244

Row | effect of a mutation on the interaction | Variant
8 | with no effect | MSRVPSPPPPAEMSSGPVAESWCYTQIKVVKFSYMWTINNFSFCREEMGEVIKSSTFSSGANDKLKWCLRVNPKGLDEESKDYLSLCLLLVSCPKSEVRAKFKFSILNAKGEETKAMESQRAYRFVQGKDWGFKKFIRRDFLLDEANGLLPDDKLTLFCEVSVVQDSVNISGQNTMNMVKVPECRLADELGGLWENSRFTDCCLCVAGQEFQAHKAILAARSPVFSAMFEHEMEESKKNRVEINDVEPEVFKEMMCFIYTGKAPNLDKMADDLLAAADKYALERLKVMCEDALCSNLSVENAAEILILADLHSADQLKTQAVDFINYHASDVLETSGWKSMVVSHPHLVAEAYRSLASAQCPFLGPPRKRLKQS [Y87C]

Variants of: B1
Details: with myc_human MYC

Row | effect of a mutation on the interaction | Variant
9 | with no effect | MSRVPSPPPPAEMSSGPVAESWCYTQIKVVKFSYMWTINNFSFCREEMGEVIKSSTFSSGANDKLKWCLRVNPKGLDEESKDYLSLCLLLVSCPKSEVRAKFKFSILNAKGEETKAMESQRAYRFVQGKDWGFKKFIRRDFLLDEANGLLPDDKLTLFCEVSVVQDSVNISGQNTMNMVKVPECRLADELGGLWENSRFTDCCLCVAGQEFQAHKAILAARSPVFSAMFEHEMEESKKNRVEINDVEPEVFKEMMCFIYTGKAPNLDKMADDLLAAADKYALERLKVMCEDALCSNLSVENAAEILILADLHSADQLKTQAVDFINYHASDVLETSGWKSMVVSHPHLVAEAYRSLASAQCPFLGPPRKRLKQS [Y87C]

Variants of: B1
Details: with mycn_human MYCN

Row | effect of a mutation on the interaction | Variant
10 | with no effect | MSRVPSPPPPAEMSSGPVAESWCYTQIKVVKFSYMWTINNFSFCREEMGEVIKSSTFSSGANDKLKWCLRVNPKGLDEESKDYLSLCLLLVSCPKSEVRAKFKFSILNAKGEETKAMESQRAYRFVQGKDWGFKKFIRRDFLLDEANGLLPDDKLTLFCEVSVVQDSVNISGQNTMNMVKVPECRLADELGGLWENSRFTDCCLCVAGQEFQAHKAILAARSPVFSAMFEHEMEESKKNRVEINDVEPEVFKEMMCFIYTGKAPNLDKMADDLLAAADKYALERLKVMCEDALCSNLSVENAAEILILADLHSADQLKTQAVDFINYHASDVLETSGWKSMVVSHPHLVAEAYRSLASAQCPFLGPPRKRLKQS [Y87C]

Variants of: B1
Details: with ncoa3_human NCOA3, Q9Y6Q9

Row | effect of a mutation on the interaction | Variant
11 | with no effect | MSRVPSPPPPAEMSSGPVAESWCYTQIKVVKFSYMWTINNFSFCREEMGEVIKSSTFSSGANDKLKWCLRVNPKGLDEESKDYLSLCLLLVSCPKSEVRAKFKFSILNAKGEETKAMESQRAYRFVQGKDWGFKKFIRRDFLLDEANGLLPDDKLTLFCEVSVVQDSVNISGQNTMNMVKVPECRLADELGGLWENSRFTDCCLCVAGQEFQAHKAILAARSPVFSAMFEHEMEESKKNRVEINDVEPEVFKEMMCFIYTGKAPNLDKMADDLLAAADKYALERLKVMCEDALCSNLSVENAAEILILADLHSADQLKTQAVDFINYHASDVLETSGWKSMVVSHPHLVAEAYRSLASAQCPFLGPPRKRLKQS [Y87C]

Variants of: B1
Details: with merl_human NF2, P35240
Sequence of merl_human NF2, P35240 (P35240 whole entry): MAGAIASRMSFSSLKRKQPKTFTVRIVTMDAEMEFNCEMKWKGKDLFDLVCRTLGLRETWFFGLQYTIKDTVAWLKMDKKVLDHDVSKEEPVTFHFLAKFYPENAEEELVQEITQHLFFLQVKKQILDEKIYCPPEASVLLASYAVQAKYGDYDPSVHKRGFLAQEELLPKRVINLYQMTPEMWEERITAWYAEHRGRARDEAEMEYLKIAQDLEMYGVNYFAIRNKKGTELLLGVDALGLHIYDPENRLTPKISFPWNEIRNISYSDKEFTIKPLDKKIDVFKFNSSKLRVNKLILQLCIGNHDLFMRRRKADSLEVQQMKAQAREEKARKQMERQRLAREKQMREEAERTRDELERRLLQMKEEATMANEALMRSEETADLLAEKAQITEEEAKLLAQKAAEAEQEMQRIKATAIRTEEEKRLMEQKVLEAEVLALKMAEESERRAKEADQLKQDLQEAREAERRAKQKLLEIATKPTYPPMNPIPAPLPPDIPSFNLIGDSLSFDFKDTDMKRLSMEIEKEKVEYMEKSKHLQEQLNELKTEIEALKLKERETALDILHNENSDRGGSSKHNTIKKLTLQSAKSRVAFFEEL

Row | effect of a mutation on the interaction | Variant
12 | with no effect | MSRVPSPPPPAEMSSGPVAESWCYTQIKVVKFSYMWTINNFSFCREEMGEVIKSSTFSSGANDKLKWCLRVNPKGLDEESKDYLSLCLLLVSCPKSEVRAKFKFSILNAKGEETKAMESQRAYRFVQGKDWGFKKFIRRDFLLDEANGLLPDDKLTLFCEVSVVQDSVNISGQNTMNMVKVPECRLADELGGLWENSRFTDCCLCVAGQEFQAHKAILAARSPVFSAMFEHEMEESKKNRVEINDVEPEVFKEMMCFIYTGKAPNLDKMADDLLAAADKYALERLKVMCEDALCSNLSVENAAEILILADLHSADQLKTQAVDFINYHASDVLETSGWKSMVVSHPHLVAEAYRSLASAQCPFLGPPRKRLKQS [Y87C]

Variants of: B1
Details: with nfic_human NFIC

Row | effect of a mutation on the interaction | Variant
13 | with no effect | MSRVPSPPPPAEMSSGPVAESWCYTQIKVVKFSYMWTINNFSFCREEMGEVIKSSTFSSGANDKLKWCLRVNPKGLDEESKDYLSLCLLLVSCPKSEVRAKFKFSILNAKGEETKAMESQRAYRFVQGKDWGFKKFIRRDFLLDEANGLLPDDKLTLFCEVSVVQDSVNISGQNTMNMVKVPECRLADELGGLWENSRFTDCCLCVAGQEFQAHKAILAARSPVFSAMFEHEMEESKKNRVEINDVEPEVFKEMMCFIYTGKAPNLDKMADDLLAAADKYALERLKVMCEDALCSNLSVENAAEILILADLHSADQLKTQAVDFINYHASDVLETSGWKSMVVSHPHLVAEAYRSLASAQCPFLGPPRKRLKQS [Y87C]

Variants of: B1
Details: with ikba_human NFKBIA

Row | effect of a mutation on the interaction | Variant
14 | with no effect | MSRVPSPPPPAEMSSGPVAESWCYTQIKVVKFSYMWTINNFSFCREEMGEVIKSSTFSSGANDKLKWCLRVNPKGLDEESKDYLSLCLLLVSCPKSEVRAKFKFSILNAKGEETKAMESQRAYRFVQGKDWGFKKFIRRDFLLDEANGLLPDDKLTLFCEVSVVQDSVNISGQNTMNMVKVPECRLADELGGLWENSRFTDCCLCVAGQEFQAHKAILAARSPVFSAMFEHEMEESKKNRVEINDVEPEVFKEMMCFIYTGKAPNLDKMADDLLAAADKYALERLKVMCEDALCSNLSVENAAEILILADLHSADQLKTQAVDFINYHASDVLETSGWKSMVVSHPHLVAEAYRSLASAQCPFLGPPRKRLKQS [Y87C]

Variants of: B1
Details: with notc2_human NOTCH2, Q04721
Sequence of notc2_human NOTCH2, Q04721 (Q04721 whole entry): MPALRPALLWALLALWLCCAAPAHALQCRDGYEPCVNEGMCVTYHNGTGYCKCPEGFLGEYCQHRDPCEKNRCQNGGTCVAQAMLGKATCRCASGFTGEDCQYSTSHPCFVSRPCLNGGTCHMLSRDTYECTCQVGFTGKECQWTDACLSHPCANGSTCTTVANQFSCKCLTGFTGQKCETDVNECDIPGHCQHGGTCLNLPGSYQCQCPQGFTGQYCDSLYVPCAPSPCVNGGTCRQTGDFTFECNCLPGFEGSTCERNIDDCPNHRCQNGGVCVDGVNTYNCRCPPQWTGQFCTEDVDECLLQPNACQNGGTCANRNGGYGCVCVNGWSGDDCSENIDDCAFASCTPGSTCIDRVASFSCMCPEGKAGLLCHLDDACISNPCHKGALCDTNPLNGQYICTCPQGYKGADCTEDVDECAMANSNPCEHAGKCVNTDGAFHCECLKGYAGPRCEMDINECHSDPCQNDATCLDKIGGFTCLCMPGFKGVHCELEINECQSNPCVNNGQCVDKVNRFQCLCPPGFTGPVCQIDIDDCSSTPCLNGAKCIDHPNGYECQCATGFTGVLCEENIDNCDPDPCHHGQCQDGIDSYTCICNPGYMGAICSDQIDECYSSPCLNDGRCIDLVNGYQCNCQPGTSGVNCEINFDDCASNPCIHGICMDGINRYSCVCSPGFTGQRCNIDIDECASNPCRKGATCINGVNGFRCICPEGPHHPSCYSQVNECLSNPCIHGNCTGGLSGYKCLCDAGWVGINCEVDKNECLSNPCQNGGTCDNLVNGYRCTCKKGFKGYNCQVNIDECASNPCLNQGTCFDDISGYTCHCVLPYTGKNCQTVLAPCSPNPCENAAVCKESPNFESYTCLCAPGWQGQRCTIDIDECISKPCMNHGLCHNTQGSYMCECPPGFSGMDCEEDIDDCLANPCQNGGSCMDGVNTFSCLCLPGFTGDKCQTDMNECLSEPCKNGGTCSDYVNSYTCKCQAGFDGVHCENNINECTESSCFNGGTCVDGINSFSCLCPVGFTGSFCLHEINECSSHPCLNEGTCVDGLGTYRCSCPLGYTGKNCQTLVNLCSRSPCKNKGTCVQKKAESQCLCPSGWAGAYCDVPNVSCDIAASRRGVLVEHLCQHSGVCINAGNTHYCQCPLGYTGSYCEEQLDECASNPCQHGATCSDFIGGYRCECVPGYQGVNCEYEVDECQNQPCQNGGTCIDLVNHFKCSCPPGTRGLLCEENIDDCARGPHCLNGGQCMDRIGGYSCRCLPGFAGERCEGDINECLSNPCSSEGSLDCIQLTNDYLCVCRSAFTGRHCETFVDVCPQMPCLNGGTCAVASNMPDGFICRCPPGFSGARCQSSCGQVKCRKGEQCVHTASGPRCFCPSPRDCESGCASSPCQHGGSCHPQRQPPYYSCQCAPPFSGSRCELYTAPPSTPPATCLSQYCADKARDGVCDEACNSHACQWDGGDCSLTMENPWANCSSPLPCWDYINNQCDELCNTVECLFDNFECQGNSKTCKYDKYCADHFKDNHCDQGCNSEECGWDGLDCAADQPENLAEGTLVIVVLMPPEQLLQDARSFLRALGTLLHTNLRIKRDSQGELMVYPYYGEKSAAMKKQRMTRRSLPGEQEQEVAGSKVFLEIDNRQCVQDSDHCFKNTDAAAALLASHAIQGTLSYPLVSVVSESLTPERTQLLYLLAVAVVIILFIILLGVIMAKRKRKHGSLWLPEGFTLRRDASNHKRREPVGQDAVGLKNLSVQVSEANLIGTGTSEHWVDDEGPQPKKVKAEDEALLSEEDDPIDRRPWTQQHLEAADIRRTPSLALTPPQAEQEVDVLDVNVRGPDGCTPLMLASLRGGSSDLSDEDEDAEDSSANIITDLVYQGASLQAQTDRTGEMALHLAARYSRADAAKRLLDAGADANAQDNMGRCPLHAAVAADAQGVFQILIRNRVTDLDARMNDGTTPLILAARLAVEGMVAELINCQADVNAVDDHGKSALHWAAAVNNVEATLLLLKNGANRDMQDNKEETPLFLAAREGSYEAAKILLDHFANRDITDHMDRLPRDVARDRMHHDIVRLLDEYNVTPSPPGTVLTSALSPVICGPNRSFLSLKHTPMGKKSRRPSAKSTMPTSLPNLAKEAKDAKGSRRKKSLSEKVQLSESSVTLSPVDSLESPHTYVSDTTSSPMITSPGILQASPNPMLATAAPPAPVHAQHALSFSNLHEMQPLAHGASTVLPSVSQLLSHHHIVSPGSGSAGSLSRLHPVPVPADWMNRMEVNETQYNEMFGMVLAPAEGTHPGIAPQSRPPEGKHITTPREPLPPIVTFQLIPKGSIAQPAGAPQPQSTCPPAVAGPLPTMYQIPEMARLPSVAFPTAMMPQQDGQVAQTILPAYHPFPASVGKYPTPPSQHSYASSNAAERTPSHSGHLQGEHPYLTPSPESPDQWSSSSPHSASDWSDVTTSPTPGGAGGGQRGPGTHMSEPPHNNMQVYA

Row | effect of a mutation on the interaction | Variant
15 | with no effect | MSRVPSPPPPAEMSSGPVAESWCYTQIKVVKFSYMWTINNFSFCREEMGEVIKSSTFSSGANDKLKWCLRVNPKGLDEESKDYLSLCLLLVSCPKSEVRAKFKFSILNAKGEETKAMESQRAYRFVQGKDWGFKKFIRRDFLLDEANGLLPDDKLTLFCEVSVVQDSVNISGQNTMNMVKVPECRLADELGGLWENSRFTDCCLCVAGQEFQAHKAILAARSPVFSAMFEHEMEESKKNRVEINDVEPEVFKEMMCFIYTGKAPNLDKMADDLLAAADKYALERLKVMCEDALCSNLSVENAAEILILADLHSADQLKTQAVDFINYHASDVLETSGWKSMVVSHPHLVAEAYRSLASAQCPFLGPPRKRLKQS [Y87C]
